Experimental findings from patent US20200299380A1 (published 2020) are described below.

The target in assay [1] is T1, MICB-Fc (R&D Systems 1599-MB) (human, UniProt Q29980 23-298, limits assumed).
T1 construct: Bought; also called human MICB-Fc; not shown: Fc of the bought fusion protein
T1 sequence: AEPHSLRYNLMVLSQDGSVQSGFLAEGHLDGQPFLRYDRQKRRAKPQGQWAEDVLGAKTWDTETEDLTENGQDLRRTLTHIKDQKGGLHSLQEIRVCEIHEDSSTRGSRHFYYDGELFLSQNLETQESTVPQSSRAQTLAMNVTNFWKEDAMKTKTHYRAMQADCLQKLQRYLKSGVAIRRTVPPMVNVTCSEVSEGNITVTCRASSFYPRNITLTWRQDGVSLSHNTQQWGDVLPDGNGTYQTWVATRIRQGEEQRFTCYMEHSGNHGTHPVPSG
The assay can be described thus: SPR, antibody at 10 µg/ml injected over immobilized MICB-Fc. The protocol:
(§1) For cross-binding study, the human ULBP-1-Fc (R&D systems*), MICB-Fc (*), ULBP-2-Fc (*) and ULBP-3-Fc (*) recombinant proteins were covalently immobilized respectively on the flow cell one to four of a CM5 sensorchip. Anti-MICA antibodies (at a constant concentration of 10 μg/ml) were injected for 2 minutes at a flow rate of 10 μl/min onto the four flow cells in parallel. After each cycle, Sensorchip was regenerated by a five second injection of appropriate regeneration buffer.

The target in another assay is T2, MICA*001-BirA (human, UniProt Q29983 24-297).
T2 construct: also called MICA-BirA; MICA*01-BirA; not shown: BirA tag
T2 sequence: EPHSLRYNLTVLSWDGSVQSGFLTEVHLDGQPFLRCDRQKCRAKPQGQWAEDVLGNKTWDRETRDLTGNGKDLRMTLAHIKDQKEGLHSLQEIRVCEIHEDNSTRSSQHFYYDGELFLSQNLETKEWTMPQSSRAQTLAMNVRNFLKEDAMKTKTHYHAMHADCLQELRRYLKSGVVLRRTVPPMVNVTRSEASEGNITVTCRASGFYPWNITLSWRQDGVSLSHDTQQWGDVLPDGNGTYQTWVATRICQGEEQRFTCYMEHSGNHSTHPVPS
As to the kind of experiment: SPR single cycle kinetics, monovalent mean KD at pH 7.4, antibody captured on Protein-G chip, MICA-BirA injected. On the procedure: For monovalent affinity measurement, chimeric anti-MICA antibodies were captured onto a Protein-G chip.
Affinities were determined using single cycle kinetics (SCK). SCK cycles were as follows: Successive 120s injections at 30 μl/min of 5 serial dilutions (0.01 to 100 nM) of MICA-His or MICA-BirA in ascending order (or of buffer for the blank injections to be subtracted during the analysis). After the last concentration is injected, complex is left to dissociate for 600s before regeneration by a 10s injection of appropriate regeneration buffer at 40 μl/min. After the regeneration, chip is left to stabilise for 60s in running buffer. Curves are fitted using Biacore T100 Evaluation software.

Assay [2] deals with T3, MICA*007 expressed at the cell surface (human, UniProt Q29983 24-297).
T3 construct: also called C1R-MICA*007; C1R-MICA*07
T3 chain: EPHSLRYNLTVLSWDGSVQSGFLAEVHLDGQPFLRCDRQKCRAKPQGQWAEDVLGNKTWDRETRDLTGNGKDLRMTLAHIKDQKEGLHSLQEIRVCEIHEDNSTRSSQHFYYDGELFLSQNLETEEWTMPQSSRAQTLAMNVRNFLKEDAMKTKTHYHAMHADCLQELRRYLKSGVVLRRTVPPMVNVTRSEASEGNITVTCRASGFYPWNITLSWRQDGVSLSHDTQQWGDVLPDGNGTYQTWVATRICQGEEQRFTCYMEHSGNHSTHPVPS
The assay can be described thus: flow cytometry on C1R transfectant cells, 4-parameter logistic fit.

Assay [3] has as its target T4, MICA*001 expressed at the cell surface (human, UniProt Q29983 24-297).
T4 sequence: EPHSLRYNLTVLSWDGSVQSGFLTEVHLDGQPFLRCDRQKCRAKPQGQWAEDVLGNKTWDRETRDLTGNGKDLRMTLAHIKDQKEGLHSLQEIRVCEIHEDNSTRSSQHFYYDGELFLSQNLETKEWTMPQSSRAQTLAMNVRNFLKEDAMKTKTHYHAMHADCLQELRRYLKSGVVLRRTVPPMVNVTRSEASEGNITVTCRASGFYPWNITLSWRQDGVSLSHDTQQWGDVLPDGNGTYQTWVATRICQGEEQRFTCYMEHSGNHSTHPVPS
As to the kind of experiment: cell-based or functional assay.

Assay [4] has as its target T1, MICB-Fc (R&D Systems 1599-MB). The assay can be described thus: SPR, antibody injected over immobilized MICB-Fc. The protocol: as §1

B1: CHG1-M-MIA-16A8 (antibody, V domains shown)
VH: EVQLVESGGGLVKPGGSLKLSCAASGFTFSRYAMSWVRQTPEKRLEWVATIFSGGSYTYYPDSVKGRFTISRDNANNTLYLQMSSLKAEDTAMYFCARPNWERTFDYWGQGTTLTVSS
VL: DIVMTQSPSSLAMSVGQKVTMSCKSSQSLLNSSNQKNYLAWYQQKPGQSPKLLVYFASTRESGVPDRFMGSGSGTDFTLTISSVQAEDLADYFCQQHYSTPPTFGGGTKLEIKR
notes: also called CHG1-M-MIA2-16A8; chimeric anti-MICA 16A8
Regarding B1, in assay [1], the binding result is listed as “binds”. In the assay with MICA*001-BirA, this molecule gave an equilibrium dissociation constant (Kd) of 11.5 nM.

B2: CHG1-M-MIA-6E4 (antibody, V domains shown)
VH: EVQLVESGGALVKPGGSLKLSCAASGFTFSYYAMSWVRQTPEKRLEWVATISRGGNYIYYTDSVKGRFTISRDNAKNTLYLQMTSLRSEDTAMFYCASISDYDGAWLAYWGQGTTLTVSS
VL: DVLMTQTPLSLPVSLGDQASISCRSSQSIIHTNGNTYLEWYLQKPGQSPKLLIYKISNRFSGVPDRFSGSGSGTDFTLKISRVEAEDLGVYYCFQGSHVPWTFGGGTKLEIKR
notes: also called chimeric anti-MICA 6E4
On to B2, for which the binding result in assay [1] was “binds”. Also, the EC50 in assay [2] came out at 1.23 µg/mL. Further, in the assay with MICA*001-BirA, the Kd was found to be 8.9 nM. The “CDC: EC50 of the increase in dead (7-AAD positive) Raji-MICA*01 cells with human complement” value in assay [3] was 1.01 µg/mL.

B3: CHG1-M-MIA-20C6 (antibody, V domains shown)
VH: QITLKESGPGILKPSQTLSLTCSFSGFSLSTSGMGVGWIRQPSGKGLEWLAHIWWDDDKYYNPSLKSQLTISKDTSRNQVFLRITSVDTADTATYYCARRTQGYFDYWGQGTTLTVSS
VL: DIVMTQSPATLSVTPGDRVSLSCRASQSISDYLHWYQQKSHESPRLLIKYASQSISGIPSRFSGSGSGSDFTLSINSVEPEDVGVYYCQNGHSFPWTFGGGTKLEIKR
notes: also called chimeric anti-MICA 20C6
In assay [2], B3 registered an EC50 of 0.4 µg/mL. The same molecule returned a Kd in the assay with MICA*001-BirA of 40 nM. Also, in assay [4], the binding result is on record as “no binding (tested: 10 µg/ml)”. Moreover, the “CDC: EC50 of the increase in dead (7-AAD positive) Raji-MICA*01 cells with human complement” value in assay [3] was determined as 0.97 µg/mL.
